Data on 3 substances can be found in paper PMC2110644.

Where two headings read alike, the source gives them in different places.

Common to all, as to test: co-sedimentation
In assay [1] the target is actin (mol wt = 43,000), platelet (human (endogenous in platelets)) (UniProt P60709).
Assay [2] has the same target. The source holds these as a separate data set.
The target is the same in assay [3]. This is another data set of the same source.
The target is the same in assay [4]. The source holds these as a separate data set.

Chain of platelet membrane glycoprotein IIb (receptor) (P08514 32-1039): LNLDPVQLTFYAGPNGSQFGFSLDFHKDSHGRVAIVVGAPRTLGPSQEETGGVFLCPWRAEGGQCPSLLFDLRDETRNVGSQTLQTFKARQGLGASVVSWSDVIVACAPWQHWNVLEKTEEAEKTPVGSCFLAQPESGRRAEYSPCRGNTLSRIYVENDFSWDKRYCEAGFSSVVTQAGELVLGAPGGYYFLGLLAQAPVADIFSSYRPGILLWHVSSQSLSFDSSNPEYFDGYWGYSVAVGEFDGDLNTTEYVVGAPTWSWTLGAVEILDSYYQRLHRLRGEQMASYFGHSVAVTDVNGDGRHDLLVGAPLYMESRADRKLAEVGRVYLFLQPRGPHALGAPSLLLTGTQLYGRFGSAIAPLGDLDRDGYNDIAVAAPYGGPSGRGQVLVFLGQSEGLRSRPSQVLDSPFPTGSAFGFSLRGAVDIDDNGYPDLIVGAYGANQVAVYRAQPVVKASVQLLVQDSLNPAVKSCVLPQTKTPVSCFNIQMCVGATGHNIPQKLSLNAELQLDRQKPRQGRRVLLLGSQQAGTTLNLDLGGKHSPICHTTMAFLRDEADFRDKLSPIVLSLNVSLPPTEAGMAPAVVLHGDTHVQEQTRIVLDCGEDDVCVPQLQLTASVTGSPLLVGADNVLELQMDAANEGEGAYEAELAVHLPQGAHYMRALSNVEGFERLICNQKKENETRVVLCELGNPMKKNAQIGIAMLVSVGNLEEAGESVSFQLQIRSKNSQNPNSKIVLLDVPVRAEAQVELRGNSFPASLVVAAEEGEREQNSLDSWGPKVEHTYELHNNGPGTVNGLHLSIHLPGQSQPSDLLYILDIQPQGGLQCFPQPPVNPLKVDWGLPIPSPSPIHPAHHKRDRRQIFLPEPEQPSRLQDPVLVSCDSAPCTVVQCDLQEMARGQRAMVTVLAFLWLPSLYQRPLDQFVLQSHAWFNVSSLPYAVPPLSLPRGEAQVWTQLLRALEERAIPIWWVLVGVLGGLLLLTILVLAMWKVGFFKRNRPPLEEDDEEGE
Chain of platelet membrane glycoprotein III (P05106 27-788): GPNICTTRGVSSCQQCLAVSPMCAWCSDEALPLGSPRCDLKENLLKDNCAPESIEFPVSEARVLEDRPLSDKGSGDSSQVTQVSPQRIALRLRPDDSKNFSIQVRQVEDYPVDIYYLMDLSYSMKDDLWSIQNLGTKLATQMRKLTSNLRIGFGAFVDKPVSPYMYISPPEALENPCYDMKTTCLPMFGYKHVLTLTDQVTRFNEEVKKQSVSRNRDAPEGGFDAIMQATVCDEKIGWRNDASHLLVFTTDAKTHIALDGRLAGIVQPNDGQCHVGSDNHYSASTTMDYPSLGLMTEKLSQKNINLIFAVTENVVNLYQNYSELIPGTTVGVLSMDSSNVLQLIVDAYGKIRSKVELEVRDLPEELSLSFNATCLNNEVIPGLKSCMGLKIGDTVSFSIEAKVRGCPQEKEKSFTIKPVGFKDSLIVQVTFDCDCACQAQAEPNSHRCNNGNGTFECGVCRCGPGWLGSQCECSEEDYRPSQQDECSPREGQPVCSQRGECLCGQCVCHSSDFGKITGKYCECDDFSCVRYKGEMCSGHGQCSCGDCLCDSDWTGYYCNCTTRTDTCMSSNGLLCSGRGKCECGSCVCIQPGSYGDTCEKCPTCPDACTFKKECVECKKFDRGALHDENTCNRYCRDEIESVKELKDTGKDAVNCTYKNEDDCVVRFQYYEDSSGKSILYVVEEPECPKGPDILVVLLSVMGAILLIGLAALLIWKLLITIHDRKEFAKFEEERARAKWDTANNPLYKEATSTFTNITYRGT

With “255,000 protein (actin-binding protein), platelet (from UniProt P21333 1-2647) (natural protein)”, the values for the percent of the protein in the Triton residue in assay [1] and in assay [2] were 34.5% and 55.2%, respectively.
Turning to “platelet membrane glycoprotein III (from UniProt P05106 27-788) (receptor)”, the results for the percent of the glycoprotein in the Triton residue in assay [1], in assay [2] and in assay [3] were 3.4%, 14.3% and 2.4%, respectively.
As for “platelet membrane glycoprotein IIb (receptor)”, the percent of the glycoprotein in the Triton residue in assay [4] was determined as 3.7%; in assay [1] it was 7.2%; in assay [2], 26.1%; in assay [3] it was 5.4%.
